According to the nanobody polyreactivity screen of Harvey et al. (2022):

Assay: yeast display, Sf9 membrane polyspecificity reagent, FACS + sequencing; frameworks hold sequencing errors
Outline: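 Nanobodies from a synthetic yeast display library (Saccharomyces cerevisiae BJ5465), induced 36–48 hours with galactose, were stained 1 hour at 4 °C with 10% biotinylated, detergent-solubilized Sf9 membrane reagent, enriched on streptavidin microbeads, then FACS-sorted. Anti-HA (expression) and streptavidin (reagent binding) fluorescence set low and high (top ~1%) gates. Polyreactivity labels come from the gate of origin. Genes were colony-PCR amplified, MiSeq 2 × 250 sequenced and filtered by CDR length.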

QVQLVESGGGLVQAGGSLRLSCAASGRIFRTYTMGWYRQAPGKERELVAAISRSGASTYYADSVKGRFTISRDNAKNTVYLQMNSLKPEDTAVYYCAKLILSTALVSRPGVDYWGQGTQVTVSS
polyreactivity (PSR sort gate): high polyreactivity

QVQLVESGGGLVQAGGSLRLSCAASGGIFDSYAMGWYRQAPGKERELVADITWSGGSTYYADSVKGRFTISRDNAKNTVYLQMNSLKPEDTAVYYCAADDGSQYYFDSPHEYDYWGQGTQVTVSS
polyreactivity (PSR sort gate): low polyreactivity

QVQHVESGGGLVQAGGSLRLSSAASGRTFYYNAMGWYRQAPGKERELVASITITDSTNYADSVKGRFTISRDNAKNTVYLQMNSLKPEDTAVYYCAKRGWGTSFYLSDYWGQGTQVTVSS
polyreactivity (PSR sort gate): low polyreactivity

QVQLVESGGGLVQAGGSLRLSCAASARTYGNYAMGWYREAPGKERELVADITRRGGSTSYADSVKGRFTISRDNAKNTVYLQMNSLKPEDTAVYYCNKRTTPYYAQGISRLEYDYWGQGTQVTVSS
polyreactivity (PSR sort gate): low polyreactivity

QVQLVESGGGLVQAGGILRLSSAASGFTFSRNAMGWYRQAPGKERELVASISGRGGRTYYADSVKGRFTISRDNAKNTVSLQMNSLKPEDTAVYDCAARWRQRKSVRYGQQGYDYWGQGTQVSVSS
polyreactivity (PSR sort gate): high polyreactivity

QVQLVESGVGLVQAGGSLRLSCAASVSTFAYNAMGWYRQSPGKEREIVASISWSGGSTYYADSVKGRFTISRDNAKNSVYLQMNSLKPEDTAVYYCAADLNAYPQRAYDYWGQGTQVTVSS
polyreactivity (PSR sort gate): low polyreactivity

QVQHVESGGGLVQAGGSLRLSCAASGSTFYRYTMGWYRQPPGKEREFVATITGRGGSTYADSVKGRFTISRDNAKNTVYLQMNSLKPEDTAVYYCAKRQTYREYDYWGQGTQVTVSS
polyreactivity (PSR sort gate): low polyreactivity

QVQLVESGGGLVQAGGSLRLSCAASGFIFSKYAMGWYRQAPGKERELVAAISTSGASTYYADSVKGRFTISRDNAKNTVYLQMNSLKPEDTAVYYCNVPRYSPIRNYDYWGQGTQVTVSS
polyreactivity (PSR sort gate): high polyreactivity

QVQLVESGGGLVQAGGSLRLSCAASGRTFGYYAMGWYRPAPGKERELVASITGGGSTNYADSVKGRFTISRDNAKNTVYLQMNSLKPEDTAVYYCAAETITDDYYEYDYWGQGTQVTVSS
polyreactivity (PSR sort gate): low polyreactivity

QVQLVESGGGLVQAGGSLRLSCAASGFIFSYYAMGWYRQAPGKERELVAAINWSGGSTYYADSVKGRFTISRDNAKNTVYLQMNSLKPEDTAVYYCAAYSSWHPYDYWGQGTQVTVSS
polyreactivity (PSR sort gate): high polyreactivity

QVQLVESGGGLVQAGGSLRLSCAASGLTFYYYVMAWYRQAPGKERELVAAISRSGGSTRYADSVKGRFTISRDNANNTVYLQMNSLKPEDTAVYYCNAVRYPRLMYYWGQGTQVTVSS
polyreactivity (PSR sort gate): high polyreactivity

QVQLVESGGRLVQAGGSLRLSCAASGRIFNYYDMGWYSQAPGKERELVAAINYSGGSTYYADSVKGRFTISRDNAKNTVSLQMNSLKAEDTAVYYCAADGYYYYCYGTTDQDDYWGLGTQVTVSS
polyreactivity (PSR sort gate): low polyreactivity

QDQLVESGGGLVQAGGSLPLSCAASGFTYSSYAMGWYRHAPGKERELVATISRSGSTTYYADSVKGRFTISRDNAKNTVYFQMNSLKPEDTAVYYCAKAYYPGGYWGQGTQVTVSS
polyreactivity (PSR sort gate): high polyreactivity

QVQLVESGGGLVQAGGSLRLSCAASGSIFSYYVMGWYRQAPGKERELVAAITSSGGSTYYADSVKGRFTISRDNAKNTVYLQMNSLKPEDTAVYYCAAYQRSQYRSYPGYEYWGQGTQVTVSS
polyreactivity (PSR sort gate): high polyreactivity

QDQLVESGGCLVQAGGSLRLSCAASRFTFSPYTMGWYRQAPGKERELVATIRYDGTSTYYADSVKGRFTISRDNAKNTVYLQMNSLKPEDTAVYYCNADPGYYDYDYWGEGTQVTVSS
polyreactivity (PSR sort gate): low polyreactivity

QVQLVESGGGLVQAGGSLRLSCAASGRIFGGYARGWYRQAPGKERELVAVINGGTSTKYADSVKGRFTISRDNAKNTVYLQMNSLKPEDTAVYYCAKTRHDSLQNRNRYDYWGQGTQVTVSS
polyreactivity (PSR sort gate): low polyreactivity

QVQLVESGGGLVQAGGSLRLSCAASGPIFAYNAMGWYRQATGKERELVAAISYSGGSTYYPDSVKGRFTISRDNEKNSVYLQMNSLKPEDTAVYYCNAVYRYRTYRYDYWGQGTQVTVSS
polyreactivity (PSR sort gate): high polyreactivity

QVQLVESGGGLVQAGGSLRLSCAASGRTFPYNAMGWYRQAPGKERELVAAISYSGGRTYYADSVKGRFTISRDNAKNTVYLLMNSLKPEDTAVYYCNALGSGREDDYWGQGTQVTVSS
polyreactivity (PSR sort gate): high polyreactivity

QVQLVESGGGLVQAGGSLRLSCAASGSTFYYYAMGWYRQAPGKERELVAAITYRGGSTYYADSVKGRFTISRDNAKNTVYLQMNSLKPEDTAVFYCAIVGYKTSSIRYGYWGQGTQVTVSS
polyreactivity (PSR sort gate): high polyreactivity

QGQRVESGGGLGQAGGSLRISCAASGLTFHRYAMGWYRQAQGKETELVAAINYSGGRTYYADSVKGRFTISRDNAKYTVYFQMNSLKPEDTAVYYCNVARWGNIPVGEYDYWGQGTQVTVSS
polyreactivity (PSR sort gate): high polyreactivity

QVQLVESGGGLVQAGGSLRLSCAASGITFANYAVGWYRQAPGKERELVAAISTSGGSTYYADSVKGRFTISRDNAKNTVDLQMNSLKPEDTAVYYCAARPYPWANFGYWGQGTQVTVSS
polyreactivity (PSR sort gate): high polyreactivity

QVQLVESGGGLVQAGGSLRLSCAASGFTITYYVMGWYRQAPGKERELVAAISSGGRTYYADSVKGRFTISRDNAKNTVYLQMNSLKPEDTAVYYCARAISIYPGFGYWGQGTQVTVSS
polyreactivity (PSR sort gate): high polyreactivity

QVKLVESGRGLVQAGGSLRLSCAASGRIFTNNAMGRYRPATGKERELVAAINVSGGRTYYADSVKGRFTISRENAKNTVYLQMISLKPDDTAVYYCNKVKETYMDYWGQGTQVTVSS
polyreactivity (PSR sort gate): high polyreactivity

QVQLEESGGGLVQAGGSLRLSCAACGSIFDNYAMGWYRQAPGKERELVAVISKRGGRTYYADSVKGRFTISRDNAKNTVYLQMNSLKPEDTAVYYCANGGQGSTPTSAWAKYDYWVQGTQVTVSS
polyreactivity (PSR sort gate): high polyreactivity

QVQLVESGGGLVQAGGSLRLSCAASGLTFYINDKGWYRQAPWKERELVAAINYSGGSTYYADSVKGRFTISRHNAKNTVYLQMNSLKPEDTAVYYCAADVSRWWGQHRYYSWGQGTQVTVSS
polyreactivity (PSR sort gate): high polyreactivity

QVHLVESGGGLVKAGGSLRLSCAASGNTFLWYAMGWYRQAPGKERELVAAITYSGGSTYYADSVKGRFTISRDNAKNTVYLQMNSLKPEYTPVYYCAAVGSYLAGYQFDYWGQGTQVNVSS
polyreactivity (PSR sort gate): low polyreactivity

QVQLVESWGGLVQAGGSLRLTCAASGRILWFYSMGWYRQAPGKERELVAAISSSSGRTYYADSVKGRYTISRDNAKNTVSLQMNSLKPEDTAVYYCAATHAVARPLEYDYWGQGTQVTVSS
polyreactivity (PSR sort gate): low polyreactivity

QDQLVESGGGLVQAGGSLRLSCAASGRTFGTNARGWYRQAPGKERELVAGINYSDGSTYYADSVKGRFTISRDNAKNTVYLQMNSLKPEVTAVYYCAADPGWAWWELYYWGQGTQVTVSS
polyreactivity (PSR sort gate): low polyreactivity

QVQLVESGGGLVQAGGSLRLSCAASGRIFPRNAMGWYRQAPGKERELVAAISSGGGGTYYADSVKGRFTISRDNAKNTVYLQMNSLKPEDTAVYYCNAAYTYVTAWYYYWGQGTQVTVSS
polyreactivity (PSR sort gate): high polyreactivity

QVQLVESGGGLVQAGGSLRLSCAASGNIFPGYAMGWYRQAPGKERELVAGISGSGGRTYYADSVKGRFTISRDNAKITVYLQMNSLKPEDSAVYYCAAEFKYYYRFEYDYWGQGTQVTVSS
polyreactivity (PSR sort gate): low polyreactivity

QVQLVESGGGLVQAGGSLRLTCAASGITFGSYAMGWYRQAPGKERELVAAITWRDGSTYYADSVKGRFTISRDNAKNTVYLQMYSLKPEDTAVYYCAAYLGLRYVGDVSDTWRYDYWGQGTQVTVSS
polyreactivity (PSR sort gate): low polyreactivity
